In article PMC2914686:

Substrate: C[S+](CC[C@H](N)C(=O)[O-])C[C@H]1O[C@@H](n2cnc3c(N)ncnc32)[C@H](O)[C@@H]1O
Experiment: Michaelis-Menten kinetics
Assay type: biochemical, Homo sapiens

B1: G9a (Homo sapiens) (protein)
chain: NRAIRTEKIICRDVARGYENVPIPCVNGVDGEPCPEDYKYISENCETSTMNIDRNITHLQHCTCVDDCSSSNCLCGQLSIRCWYDKDGRLLQEFNKIEPPLIFECNQACSCWRNCKNRVVQSGIKVRLQLYRTAKMGWGVRALQTIPQGTFICEYVGELISDAEADVREDDSYLFDLDNKDGEVYCIDARYYGNISRFINHLCDPNIIPVRVFMLHQDLRFPRIAFFSSRDIRTGEELGFDYGDRFWDIKSKYFTCQCGSEKCKHSAEAIALEQSRLARLD
Protein B1 has a Km of 31.7 µM.
